Results on 1 molecule are retold here after patent publication US8618251.

For test [1], the target named is soluble hFcγRIIA^131R (human) (UniProt P12318). The test is described as follows: SPR Biacore T100; reference of the fold not given.
Test [2] concerns the target soluble hFcγRIIB (human) (UniProt P31994). In words: SPR Biacore T100; reference of the fold not given.
The target in test [3] is soluble hFcγRIIA^131H (human) (UniProt P12318). In words: SPR Biacore T100; reference of the fold not given. For orientation: In SPR one partner is held on a chip, and binding of the other changes the refractive index at the surface.
For test [4], the target named is soluble hFcγRIIA^131R (human) (UniProt P12318). In words: SPR Biacore T100, steady state, antibody immobilised.
In test [5] the target is soluble hFcγRIIB (human) (UniProt P31994). The description is as above.
Test [6] has as its target soluble hFcγRIIA^131H (human) (UniProt P12318). Described as above.

Chain of soluble hFcγRIIA^131H (human) (P12318 34-217): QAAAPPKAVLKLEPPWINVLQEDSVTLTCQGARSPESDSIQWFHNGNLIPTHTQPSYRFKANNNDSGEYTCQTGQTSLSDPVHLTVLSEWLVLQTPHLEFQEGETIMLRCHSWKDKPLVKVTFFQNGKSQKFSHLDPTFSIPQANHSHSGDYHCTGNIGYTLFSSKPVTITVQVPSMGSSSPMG
Chain of soluble hFcγRIIA^131R (human) (P12318 34-217 H167R): as the sequence (P12318 34-217) above, with H134R counted along it
Chain of soluble hFcγRIIB (human) (P31994 43-217 limits assumed): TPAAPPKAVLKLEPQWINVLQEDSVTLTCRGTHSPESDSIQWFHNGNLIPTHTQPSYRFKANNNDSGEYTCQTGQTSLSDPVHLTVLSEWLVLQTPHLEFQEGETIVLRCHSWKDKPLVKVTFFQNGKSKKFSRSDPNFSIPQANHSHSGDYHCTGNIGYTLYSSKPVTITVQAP

B1: 4-4-20 hIgG1 Fc mutant L163P-S183G-K222E-G236A-N276D-S298G-T299A-D312G (antibody, part only; not given: 4-4-20 variable domains, not shown: another chain or arm of the molecule)
constant: ASTKGPSVFPLAPSSKSTSGGTAALGCLVKDYFPEPVTVSWNSGAPTSGVHTFPAVLQSSGLYSLGSVVTVPSSSLGTQTYICNVNHKPSNTKVDKRVEPKSCDETHTCPPCPAPELLAGPSVFLFPPKPKDTLMISRTPEVTCVVVDVSHEDPEVKFDWYVDGVEVHNAKTKPREEQYNGAYRVVSVLTVLHQGWLNGKEYKCKVSNKALPAPIEKTISKAKGQPREPQVYTLPPSRDELTKNQVSLTCLVKGFYPSDIAVEWESNGQPENNYKTTPPVLDSDGSFFLYSKLTVDKSRWQQGNVFSCSVMHEALHNHYTQKSLSLSPGK
As usually defined, the Kd is the constant that tells how readily two partners part at equilibrium. A lower Kd goes with higher affinity. For B1, the Fold change in affinity in test [1] is 7.4 fold; in the test with soluble hFcγRIIB (human) [2] it was 1.3 fold; in test [3], 2.6 fold. Further, the results for the equilibrium dissociation constant (Kd) (in test [4]; with soluble hFcγRIIB (human) [5]; in test [6]) were 781 nM, 8480 nM and 1340 nM, respectively.
